The text below walks through data of publication PMC5425604, “Fe65-PTB2 Dimerization Mimics Fe65-APP Interaction” (Frontiers in Molecular Neuroscience, 2017).

Several values for one entry are separate records, joined by “and”; a condition that tells them apart may be missing. Equal values may be shown once.

Data set [1] concerns the molecule itself. Description: native gel or EMSA; Blue Native gel of cytosolic and membrane fractions of HEK293 cells expressing Fe65-HA, with or without APP-myc; blots for HA and myc.
Data set [2] deals with the molecule itself. Description: SEC-MALS; MALS in line with SEC, refractive index; SEC buffer with 5% (v/v) glycerol. For orientation: Size exclusion chromatography separates by hydrodynamic size, large species first.
Data set [3] concerns the molecule itself. Description: SAXS; 0.25-6 mg/mL, 20 mM Na2HPO4 pH 6.5, 150 mM NaCl, 2 mM DTT (reducing), 300 K; monomer to dimer.

B1: Fe65-HA (natural protein, human, UniProt O00213 1-710, looked up)
chain: MSVPSSLSQSAINANSHGGPALSLPLPLHAAHNQLLNAKLQATAVGPKDLRSAMGEGGGPEPGPANAKWLKEGQNQLRRAATAHRDQNRNVTLTLAEEASQEPEMAPLGPKGLIHLYSELELSAHNAANRGLRGPGLIISTQEQGPDEGEEKAAGEAEEEEEDDDDEEEEEDLSSPPGLPEPLESVEAPPRPQALTDGPREHSKSASLLFGMRNSAASDEDSSWATLSQGSPSYGSPEDTDSFWNPNAFETDSDLPAGWMRVQDTSGTYYWHIPTGTTQWEPPGRASPSQGSSPQEESQLTWTGFAHGEGFEDGEFWKDEPSDEAPMELGLKEPEEGTLTFPAQSLSPEPLPQEEEKLPPRNTNPGIKCFAVRSLGWVEMTEEELAPGRSSVAVNNCIRQLSYHKNNLHDPMSGGWGEGKDLLLQLEDETLKLVEPQSQALLHAQPIISIRVWGVGRDSGRERDFAYVARDKLTQMLKCHVFRCEAPAKNIATSLHEICSKIMAERRNARCLVNGLSLDHSKLVDVPFQVEFPAPKNELVQKFQVYYLGNVPVAKPVGVDVINGALESVLSSSSREQWTPSHVSVAPATLTILHQQTEAVLGECRVRFLSFLAVGRDVHTFAFIMAAGPASFCCHMFWCEPNAASLSEAVQAACMLRYQKCLDARSQASTSCLPAPPAESVARRVGWTVRRGVQSLWGSLKPKRLGAHTP
notes: Fe65 (APBB1); called full-length Fe65 in the native gel analysis; human stated for Fe65 in general; Printed both as FE65-HA and HA-Fe65; also called HA-Fe65; HA-tagged Fe65; source: HEK293, transfected (pcDNA3.1), in lysate or subcellular fraction
For orientation: stoichiometry N means the number of molecules, sites or subunits per partner or assembly. For B1, the “stoichiometry N” value in data set [1] stood at 2.

B2: Human Fe65-PTB2 (residues 534-667), crystallization construct (domain or fragment, UniProt O00213 534-667, looked up)
chain: APKNELVQKFQVYYLGNVPVAKPVGVDVINGALESVLSSSSREQWTPSHVSVAPATLTILHQQTEAVLGECRVRFLSFLAVGRDVHTFAFIMAAGPASFCCHMFWCEPNAASLSEAVQAACMLRYQKCLDARSQ
notes: Fe65 (APBB1), human, PTB2 domain, residues 534-667 of UniProtKB APBB1_HUMAN O00213; source: recombinantly expressed and purified as described previously (Radzimanowski et al., 2008a); final SEC with 5% glycerol
Consider B2, for which the “stoichiometry N” value in data set [2] was 2 and 4.

B3: Wildtype Fe65-PTB2 (pETHis construct for NMR and SAXS) (domain or fragment, human, UniProt O00213 534-667, looked up)
chain: B2 chain
notes: Fe65 (APBB1), human, PTB2 domain; limits 534-667 are stated for recombinant Fe65-PTB2 in general, not separately for the pETHis construct; also called wt Fe65-PTB2
As to B3, the “stoichiometry N” value in data set [3] worked out at 2.
